In PMC4512291:

Key:
[1] = molecular target: E6 F47R 4C4S, a soluble mutant of HPV16 E6 (HPV16); assay: ITC
e6ap peptide = assay: ITC

## LxxLL peptide (E6-binding LxxLL motif of E6AP)
[1]
  Kd: 42 µM

## E6 F47R 4C4S, a soluble mutant of HPV16 E6 (natural protein)
e6ap peptide
  Kd: > 10 µM
